Results: patent US12534531 (MacroGenics, dated 2026)
One block for each binder: values may come before it.

How the values were obtained:
[1] = molecular target: T1, human LAG-3 expressed on NSO cells (human, UniProt P18627 29-525); test: FACS saturation binding to NSO cells expressing LAG-3; SM; SD 0.1376
T1 sequence: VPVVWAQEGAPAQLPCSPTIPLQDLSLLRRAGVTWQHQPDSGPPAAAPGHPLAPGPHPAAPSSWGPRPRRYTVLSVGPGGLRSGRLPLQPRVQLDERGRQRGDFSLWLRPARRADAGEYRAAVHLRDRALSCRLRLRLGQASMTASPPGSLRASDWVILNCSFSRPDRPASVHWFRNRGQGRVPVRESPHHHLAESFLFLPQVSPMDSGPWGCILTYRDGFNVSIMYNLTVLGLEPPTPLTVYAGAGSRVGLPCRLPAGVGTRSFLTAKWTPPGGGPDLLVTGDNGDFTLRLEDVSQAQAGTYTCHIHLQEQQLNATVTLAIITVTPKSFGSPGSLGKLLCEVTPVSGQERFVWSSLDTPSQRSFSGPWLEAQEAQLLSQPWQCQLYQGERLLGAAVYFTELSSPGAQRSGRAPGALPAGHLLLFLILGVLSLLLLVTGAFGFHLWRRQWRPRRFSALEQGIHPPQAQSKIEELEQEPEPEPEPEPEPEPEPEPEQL

[2] = molecular target: T2, biotinylated-soluble human LAG-3-Fc fusion protein (human, UniProt P18627 23-450, biotinylated (site not stated)); test: FACS: inhibition of shLAG-3-Fc binding to MHC II on Daudi cells (column head prints EC50); SM; SD 0.1900
T2 construct: whole entry named; also called shLAG-3; shLAG-3-Fc; not shown: Fc
T2 sequence: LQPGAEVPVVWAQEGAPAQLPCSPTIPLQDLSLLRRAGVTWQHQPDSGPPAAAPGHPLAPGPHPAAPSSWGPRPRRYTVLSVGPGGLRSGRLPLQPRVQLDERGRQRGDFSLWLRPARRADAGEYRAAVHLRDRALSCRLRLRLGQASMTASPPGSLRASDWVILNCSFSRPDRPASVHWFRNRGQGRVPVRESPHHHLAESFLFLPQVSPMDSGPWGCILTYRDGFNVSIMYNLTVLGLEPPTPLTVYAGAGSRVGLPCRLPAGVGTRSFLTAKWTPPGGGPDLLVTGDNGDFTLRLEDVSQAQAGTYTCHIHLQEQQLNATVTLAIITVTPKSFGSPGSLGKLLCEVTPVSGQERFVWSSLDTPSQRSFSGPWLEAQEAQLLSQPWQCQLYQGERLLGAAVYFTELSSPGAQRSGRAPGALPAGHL

[3] = molecular target: T1, human LAG-3 expressed on NSO cells; test: FACS saturation binding to NSO cells expressing LAG-3; SM; SD 0.1660
[4] = molecular target: T2, biotinylated-soluble human LAG-3-Fc …; test: FACS: inhibition of shLAG-3-Fc binding to MHC II on Daudi cells (column head prints EC50); SM; SD 0.3407
[5] = molecular target: T1, human LAG-3 expressed on NSO cells; test: FACS saturation binding to NSO cells expressing LAG-3; SM; SD 0.3430
[6] = molecular target: T2, biotinylated-soluble human LAG-3-Fc …; test: FACS: inhibition of shLAG-3-Fc binding to MHC II on Daudi cells (column head prints EC50); SM; SD 0.1409

EC50 [1]: 597 nM | IC50 [2]: 701 nM
B1: LAG-3 mAb A IgG4 (P) (antibody, V domains shown)
VH: QVQLQQWGAGLLKPSETLSLTCAVYGGSFSDYYWNWIRQPPGKGLEWIGEINHNGNTNSNPSLKSRVTLSLDTSKNQFSLKLRSVTAADTAVYYCAFGYSDYEYNWFDPWGQGTLVTVSS
VL: EIVLTQSPATLSLSPGERATLSCRASQSISSYLAWYQQKPGQAPRLLIYDASNRATGIPARFSGSGSGTDFTLTISSLEPEDFAVYYCQQRSNWPLTFGQGTNLEIK
notes: IgG4 (P); also called 25F7

EC50 [3]: 452 nM | IC50 [4]: 592 nM
B2: LAG-3 mAb A IgG1 (AA) (antibody, V domains shown)
VH: QVQLQQWGAGLLKPSETLSLTCAVYGGSFSDYYWNWIRQPPGKGLEWIGEINHNGNTNSNPSLKSRVTLSLDTSKNQFSLKLRSVTAADTAVYYCAFGYSDYEYNWFDPWGQGTLVTVSS
VL: EIVLTQSPATLSLSPGERATLSCRASQSISSYLAWYQQKPGQAPRLLIYDASNRATGIPARFSGSGSGTDFTLTISSLEPEDFAVYYCQQRSNWPLTFGQGTNLEIK
notes: IgG1 (AA)

EC50 [5]: 607 nM | IC50 [6]: 364 nM
B3: hLAG-3 mAb 1 (1.4) IgG1 (AA) (antibody, V domains shown)
VH: QVQLVQSGAEVKKPGASVKVSCKASGYTFTNYGMNWVRQAPGQGLEWMGWINTYTGESTYADDFEGRFVFSMDTSASTAYLQISSLKAEDTAVYYCARESLYDYYSMDYWGQGTTVTVSS
VL: DIVMTQTPLSLSVTPGQPASISCKSSQSLLHSDAKTYLNWLLQKPGQPPERLIYLVSELDSGVPDRFSGSGSGTDFTLKISRVEAEDVGVYYCWQGTHFPYTFGGGTKVEIK
